Assay results as given in patent CN114617961A (BEIJING ORIENTAL BAITAI BIOTECHNOLOGY CO LTD; BEIJING …, dated 2022).

Key:
[1] = biological target: T1, LAG-3 (human, UniProt P18627 23-450, limits assumed); assay: cell-based or functional assay
T1 sequence (looked up): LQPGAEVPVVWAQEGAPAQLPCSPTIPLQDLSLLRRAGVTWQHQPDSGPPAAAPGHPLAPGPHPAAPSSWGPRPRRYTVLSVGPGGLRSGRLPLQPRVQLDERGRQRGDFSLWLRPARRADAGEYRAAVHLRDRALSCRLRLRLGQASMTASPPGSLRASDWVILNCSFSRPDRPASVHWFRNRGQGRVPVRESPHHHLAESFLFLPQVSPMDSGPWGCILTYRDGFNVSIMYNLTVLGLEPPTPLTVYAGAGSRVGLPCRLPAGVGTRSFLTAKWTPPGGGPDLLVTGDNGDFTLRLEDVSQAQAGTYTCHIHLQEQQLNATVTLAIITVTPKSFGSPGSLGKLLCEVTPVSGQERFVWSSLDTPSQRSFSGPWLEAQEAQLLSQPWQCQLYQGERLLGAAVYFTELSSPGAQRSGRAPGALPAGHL

[2] = biological target: T1, LAG-3; assay: cell-based or functional assay; remark: listed apart in the source

| Binder | EC50 of IL-2 secretion in mixed lymphocyte reaction (CD4+ T cells + DC, 5 days) [1] [µg/mL] | EC50 of T cell proliferation (CCK8) in mixed lymphocyte reaction [2] [µg/mL] |
| --- | --- | --- |
| MA-2 鼠源抗体 (mouse IgG1 / mouse Ck) (antibody, V domains shown) VH: EVQLQQSGAELVKPGASVKLSCTASGFNIKDTYMHWVKQRPEQGLEWIGKIDPANGNTKYDPKFQGKATITADTSSNTAYLQLSRLTSEDTAVYYCARDTTVGLDYWGQGTTLTVSS VL: DIVLTQTPAIMSASLGEKVTMSCRASSSVNYMYWYQQKSDASPKLWIYYTSNLAPGVPARFSGSGSGNSYSLTISSMEGEDAATYYCQQFTSSPSMTFGGGTKLEIKA | 0.03 |  |
| 嵌合抗体CA-1 (antibody, human IgG4 S228P, kappa) heavy: not shown light: DIVITQSTAIMSASLGEKVTMSCRASSSVNYMYWYQQKSDASPKLWIYYTSKLASGVPARFSGSGSGTSYSLTISSMEAEDAATYYCQQWSSNPHTFGGGTKLEIKRTVAAPSVFIFPPSDEQLKSGTASVVCLLNNFYPREAKVQWKVDNALQSGNSQESVTEQDSKDSTYSLSSTLTLSKADYEKHKVYACEVTHQGLSSPVTKSFNRGEC |  | 0.00723 |
| MA-1 鼠源抗体 (mouse IgG1 / mouse Ck) (antibody) heavy: EVQLQQSGAELVKPGASVKLSCTASGFNIKDTYMHWVKQRPEQGLEWIGKIDPANGNTKYDPKFQGKATITADTSSNTAYLQLSRLTSEDTAVYYCARDTTVGLDYWGQGTTLTVSSAKTTPPSVYPLAPGSAAQTNSMVTLGCLVKGYFPEPVTVTWNSGSLSSGVHTFPAVLQSDLYTLSSSVTVPSSTWPSETVTCNVAHPASSTKVDKKIVPRDCGCKPCICTVPEVSSVFIFPPKPKDVLTITLTPKVTCVVVDISKDDPEVQFSWFVDDVEVHTAQTQPREEQFNSTFRSVSELPIMHQDWLNGKEFKCRVNSAAFPAPIEKTISKTKGRPKAPQVYTIPPPKEQMAKDKVSLTCMITDFFPEDITVEWQWNGQPAENYKNTQPIMDTDGSYFVYSKLNVQKSNWEAGNTFTCSVLHEGLHNHHTEKSLSHSPG light: DIVITQSTAIMSASLGEKVTMSCRASSSVNYMYWYQQKSDASPKLWIYYTSKLASGVPARFSGSGSGTSYSLTISSMEAEDAATYYCQQWSSNPHTFGGGTKLEIKADAAPTVSIFPPSSEQLTSGGASVVCFLNNFYPKDINVKWKIDGSERQNGVLNSWTDQDSKDSTYSMSSTLTLTKDEYERHNSYTCEATHKTSTSPIVKSFNRNEC | 0.024 |  |
| 人源化抗体HA-4 (human IgG4 / human Ck) (antibody, V domains shown) VH: QVQLVQSGAEVKKPGASVKVSCKASGYNITDTYMHWVRQAPGQGLEWIGKIDPANGNTKYDPKFQGRATITADTSISTAYMELSRLRSDDTAVYYCARDTTVGLDYWGQGTLVTVSS VL: DIVITQSPAFLSVTPGEKVTITCRASSSVNYMYWYQQKPDASPKLWIYYTSKLASGVPSRFSGSGSGTDYTFTISSLEAEDAATYYCQQWSSNPHTFGGGTKVEIKR |  | 0.0338 |
| 人源化抗体HA-3 (human IgG4 / human Ck) (antibody, V domains shown) VH: QVQLVQSGAEVKKPGASVKVSCKASGYNITDTYMHWVRQAPGQGLEWIGKIDPANGNTKYDPKFQGRATITADTSISTAYMELSRLRSDDTAVYYCARDTTVGLDYWGQGTLVTVSS VL: DIVITQSPAFLSVTPGEKVTITCRASSSVNYMYWYQQKPDQAPKLLIYYTSKLASGVPSRFSGSGSGTDYTFTISSLEAEDAATYYCQQWSSNPHTFGGGTKVEIKR |  | 0.015 |
| 人源化抗体HA-5 (human IgG4 / human Ck) (antibody, V domains shown) VH: QVQLVQSGAEVKKPGASVKVSCKASGYNIKDTYMHWVKQAPGQGLEWIGKIDPANGNTKYDPKFQGKATITADTSISTAYMELSRLRSDDTAVYYCARDTTVGLDYWGQGTLVTVSS VL: DIVITQSPAFLSVTPGEKVTITCRASSSVNYMYWYQQKPDASPKLWIYYTSKLASGVPARFSGSGSGTSYTFTISSLEAEDAATYYCQQWSSNPHTFGGGTKVEIKR |  | 0.0318 |
| 人源化抗体HA-2 (human IgG4 / human Ck) (antibody, V domains shown) VH: QVQLVQSGAEVKKPGASVKVSCKASGYTFTDTYMHWVRQAPGQGLEWIGKIDPANGNTKYDPKFQGRATITADTSISTAYMELSRLRSDDTAVYYCARDTTVGLDYWGQGTLVTVSS VL: DIVITQSPAFLSVTPGEKVTITCRASSSVNYMYWYQQKPDQAPKLLIYYTSKLASGVPSRFSGSGSGTDYTFTISSLEAEDAATYYCQQWSSNPHTFGGGTKVEIKR |  | 0.0271 |
| 人源化抗体HA-1 (human IgG4 / human Ck) (antibody, V domains shown) VH: QVQLVQSGAEVKKPGASVKVSCKASGYTFTDTYMHWVRQAPGQGLEWIGKIDPANGNTKYDPKFQGRATITADTSISTAYMELSRLRSDDTAVYYCARDTTVGLDYWGQGTLVTVSS VL: DIVITQSPAFLSVTPGEKVTITCRASSSVNYMYWYQQKPDASPKLWIYYTSKLASGVPSRFSGSGSGTDYTFTISSLEAEDAATYYCQQWSSNPHTFGGGTKVEIKR |  | 0.00688 |
| MA-4 鼠源抗体 (mouse IgG1 / mouse Ck) (antibody, V domains shown) VH: QVKLEESGPGLVQPSQSLSITCTVSAFSLTTYAVHWVRQSPGKGLEWLGVIWSGGSTDYNTAFISRLNITKDNSKSQVFFKMNSLQANDTAIYYCARLDGTFFDYWGQGTTLTVSS VL: DIVLTQTPAIMSASLGERVTMTCTASSSVSSSYLHWYQQKPGSSPKLWIYSTSNLASGVPARFSGSGSGTSYSLTISSMEAEDAATYYCHQYHRSPPTFGGGTKLEIKA | 0.121 |  |
| MA-3 鼠源抗体 (mouse IgG1 / mouse Ck) (antibody, V domains shown) VH: EVKLEESGPELVKPGASVKISCKASGYSFTSYYIHWVKQRPGQGLEWIGWIFPGTGNTRYNEKFKGKATLTADTSSSTVYMQLSGLTSEDSAVYFCARIGGRLTGDAMDYWGQGTSVTVSS VL: DIVLTQSTASLAVSLGQRATISCRASESVDSYGNSFMHWYQQKPGQPPKLLIYLASNLESGVPARFSGSGSRTDFTLTIDPVEADDAATYYCQQNNEDPWTFGGGTKLEIKA | 0.076 |  |
